According to publication PMC4400149, “The Carboxy-Terminal Domain of Erb1 Is a Seven-Bladed ß-Propeller that Binds RNA” (PLoS ONE, 2015):

What was measured:
[1] = target: T1, ChErb1 432-801 (C-terminal seven-bladed beta-propeller) (Chaetomium thermophilum var. thermophilum) (UniProt G0SCK6); experiment: fluorescence titration (intrinsic Trp); conditions: apparent KD; emission at 315 nm; 1.5 uM protein; Fluorescence: 20 mM Hepes pH 7.5, 150 mM NaCl, 5% glycerol, 2 mM beta-mercaptoethanol, 25 C; bead pull-down: 50 mM Tris pH 8, 100 mM NaCl, 5 mM MgCl2, 3 mM …
T1 sequence: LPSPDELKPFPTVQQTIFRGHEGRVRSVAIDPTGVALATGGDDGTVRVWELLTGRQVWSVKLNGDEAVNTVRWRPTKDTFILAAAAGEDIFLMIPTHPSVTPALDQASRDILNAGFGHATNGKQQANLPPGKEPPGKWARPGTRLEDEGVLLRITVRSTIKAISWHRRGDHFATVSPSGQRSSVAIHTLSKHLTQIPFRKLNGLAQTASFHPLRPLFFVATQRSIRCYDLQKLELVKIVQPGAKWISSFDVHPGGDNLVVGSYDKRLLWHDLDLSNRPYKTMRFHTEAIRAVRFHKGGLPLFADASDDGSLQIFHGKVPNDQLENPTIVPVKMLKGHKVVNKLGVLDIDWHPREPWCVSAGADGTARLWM

[2] = target: T2, Erb1 (Eukaryotic Ribosome Biogenesis 1) from Saccharomyces cerevisiae (Saccharomyces cerevisiae, UniProt Q04660 1-807); experiment: SEC; purified Nop7 and Erb1 mixed in equimolar amounts, Superdex200 16/60 in SE buffer (20mM Hepes pH 7.5; 0.25M NaCl; 2 mM β-mercaptoethanol, 5% glycerol); fractions of the heterodimer collected; conditions: both partners purified
T2 construct: Erb1, Saccharomyces cerevisiae, cloned from genomic DNA; 807 residues; Vector pET28-NKI/LIC 6His/3C: N-terminal 6xHis tag followed by a 3C protease site; no cleavage of the tag is told; also called 6xHis-Erb1; source: E. coli BL21 Codon Plus, purified (IMAC, size exclusion chromatography)
T2 sequence (looked up): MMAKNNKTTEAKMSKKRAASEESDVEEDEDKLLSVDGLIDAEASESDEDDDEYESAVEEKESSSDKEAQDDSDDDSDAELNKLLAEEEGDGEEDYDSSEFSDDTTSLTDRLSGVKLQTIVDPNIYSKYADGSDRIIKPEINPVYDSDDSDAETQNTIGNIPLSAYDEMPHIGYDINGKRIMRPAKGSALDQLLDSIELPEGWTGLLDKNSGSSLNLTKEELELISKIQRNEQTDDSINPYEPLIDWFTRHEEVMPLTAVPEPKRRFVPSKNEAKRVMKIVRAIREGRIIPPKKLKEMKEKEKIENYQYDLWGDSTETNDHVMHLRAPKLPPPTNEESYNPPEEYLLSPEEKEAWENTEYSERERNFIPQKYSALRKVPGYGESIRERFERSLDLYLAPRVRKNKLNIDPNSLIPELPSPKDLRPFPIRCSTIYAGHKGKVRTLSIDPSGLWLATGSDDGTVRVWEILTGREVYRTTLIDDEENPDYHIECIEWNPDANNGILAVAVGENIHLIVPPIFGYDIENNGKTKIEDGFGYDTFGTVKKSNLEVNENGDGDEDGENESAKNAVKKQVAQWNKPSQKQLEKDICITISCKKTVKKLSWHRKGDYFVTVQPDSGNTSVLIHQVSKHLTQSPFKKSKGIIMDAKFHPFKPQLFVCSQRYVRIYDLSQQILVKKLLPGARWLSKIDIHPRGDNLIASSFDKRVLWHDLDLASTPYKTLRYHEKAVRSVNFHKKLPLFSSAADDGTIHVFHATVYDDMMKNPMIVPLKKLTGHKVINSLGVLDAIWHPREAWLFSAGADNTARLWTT

[3] = target: T3, ChErb1 432-801 (C-terminal seven-bladed beta-propeller) (Chaetomium thermophilum var. …, UniProt G0SCK6 432-801); experiment: BLI; Fluorescence: 20 mM Hepes pH 7.5, 150 mM NaCl, 5% glycerol, 2 mM beta-mercaptoethanol, 25 C; bead pull-down: 50 mM Tris pH 8, 100 mM NaCl, 5 mM MgCl2, 3 mM DTT, 0.1% Triton X-100, 0.1 mg/ml BSA, room temperature; BLI conditions not in material; conditions: protein: recombinant; tags: N-terminal 6xHis with 3C site (pET28-NKI/LIC 6His/3C); single strand
T3 sequence: T1 sequence

For free poly(U), the Kd [1] was 3 µM.

B1: Nop7 from Saccharomyces cerevisiae (natural protein, UniProt P53261 1-605, looked up)
chain: MRIKKKNTRGNARNFITRSQAVRKLQVSLADFRRLCIFKGIYPREPRNKKKANKGSTAPTTFYYAKDIQYLMHEPVLAKFREHKTFARKLTRALGRGEVSSAKRLEENRDSYTLDHIIKERYPSFPDAIRDIDDALNMLFLFSNLPSTNQVSSKIINDAQKICNQWLAYVAKERLVRKVFVSIKGVYYQANIKGEEVRWLVPFKFPENIPSDVDFRIMLTFLEFYSTLLHFVLYKLYTDSGLIYPPKLDLKKDKIISGLSSYILESRQEDSLLKLDPTEIEEDVKVESLDASTLKSALNADEANTDETEKEEEQEKKQEKEQEKEQNEETELDTFEDNNKNKGDILIQPSKYDSPVASLFSAFVFYVSREVPIDILEFLILSCGGNVISEAAMDQIENKKDIDMSKVTHQIVDRPVLKNKVAGRTYIQPQWIFDCINKGELVPANKYLPGEALPPHLSPWGDAIGYDPTAPVEEGEEEESESESESEDQVEEEDQEVVAGEEDDDDDEELQAQKELELEAQGIKYSETSEADKDVNKSKNKKRKVDEEEEEKKLKMIMMSNKQKKLYKKMKYSNAKKEEQAENLKKKKKQIAKQKAKLNKLDSKK
notes: Nop7, Saccharomyces cerevisiae, cloned from genomic DNA; called full length Nop7 in the results; Vector pNIC28-Bsa4: N-terminal 6xHis tag followed by a TEV site; no cleavage of the tag is told; also called 6xHis-Nop7; source: E. coli BL21 Codon Plus, purified (IMAC, size exclusion chromatography)
B1: binds [2].

Work on UUUUUUUUUUUUUUU (ssRNA) [biotinylated poly(U) 15-mer] yielded a Kd [3] of 0.17 µM.
